Experimental findings from patent publication US20200231668A1 (INTRINSIC LIFESCIENCES, published 2020) are described below.

Assay [1] deals with T1, recombinant human erythroferrone (ERFE) (human, UniProt Q4G0M1 29-354).
T1 construct: Secreted from transfected HEK293F cells and purified from the supernatant; also called human ERFE; hERFE
T1 sequence: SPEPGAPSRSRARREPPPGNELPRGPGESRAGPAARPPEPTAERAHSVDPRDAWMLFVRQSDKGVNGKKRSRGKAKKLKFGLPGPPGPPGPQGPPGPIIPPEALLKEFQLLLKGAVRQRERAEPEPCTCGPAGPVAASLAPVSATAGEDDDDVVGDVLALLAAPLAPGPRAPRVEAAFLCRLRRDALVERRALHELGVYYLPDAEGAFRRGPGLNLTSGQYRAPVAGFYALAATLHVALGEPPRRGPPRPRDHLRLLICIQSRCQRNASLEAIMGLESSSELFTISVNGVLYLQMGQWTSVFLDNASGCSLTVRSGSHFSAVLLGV
The assay is described as follows: sandwich ELISA, biotinylated detection antibody; coating antibodies 7H4, 17A5, 4C1.

For assay [2], the target named is T1, recombinant human erythroferrone (ERFE). The assay is described as follows: sandwich ELISA, biotinylated detection antibody (also used as coating antibody); coating antibodies 7H4, 17A5, 4C1. In general terms: In an ELISA, binding on a coated surface is turned into a signal by an enzyme label.

B1: monoclonal antibody 9B12 (ATCC Accession Number PTA-123882) (antibody, mouse IgG1, kappa, V domains shown)
VH: QVQLQQSGPELVKPGASVRISCKASGYTFTSYYIHWVKQRPGQGLEWIAWIYPGNVNTEYNEKFKGKATLTADESSSTAYMQLSSLTSEDSAVFFCAREGITTNALDYWGQGTSVTVSS
VL: DIQMTQTTSSLSASLGDRVTISCRASQDISNYLNWYQQKPDGTVKLLIYYTSRLYSGVPSRFSGNGSGSDYSLTISNLEQEDIATYFCQQGHTLWTFGGGTKLEIKR
notes: Mouse IgG1 from hybridoma; Biotinylated when used as detection antibody
In the case of B1, the binding result in assay [1] is given as “binds”.

B2: monoclonal antibody 17A5 (ATCC Accession Number PTA-123883) (antibody, mouse IgG1, kappa, V domains shown)
VH: QVQLQQPGSVLVRPGASVKLSCKASGYTFTSYWMHWAKQRPGQGLEWIGEIHPKSGDTNHNEKFKGKATLTVDTSSNTAYVDLSSLTSEDSAVYYCAREGITTVGFDLWGAGTTVTVSS
VL: QIVLTQSPAIMSASPGQKVTLTCSASSSVSYMNWVQQKSGTSPKRWIYDTSKLASGVPARFSGSGSGTSYSLTISSVEAEDAATYYCQQWSSHPYTFGGGTKLEIKR
notes: as for B1
Take B2: in assay [2], the binding result is given as “binds”.
